Laboratory results from US12410262B2, “Peptide conjugates of cytotoxins as therapeutics” (Cybrexa 2, Inc., priority 2019, dated 2025).

How the values were obtained:
HCT116 = assay: cells; type: cell-based, human; details: 96 h
Experimental: Cells were plated in 96 well black walled-clear bottom plates (Griener), DLD-1 WT cells at 2500 cells per well, FaDu, and HeLa cells at 5000 cells per well, and HCT116 at 3000 cells per well, in growth media containing 10% FBS. Cells were allowed to adhere at room temperature for 60 minutes before returning to a 37 C, 5% CO2 incubator. After 24 hours, media was removed and replaced with fresh growth media containing various drug concentrations. Each drug concentration was added in triplicate. Non-drug treated controls contained growth media only. Cells were returned to the incubator. Ninety-six hours after addition of drug, cells were fixed with 4% paraformaldehyde for 20 minutes and stained with Hoechst at 1 ug/mL. The plates were imaged on a Cytation 5 auto imager (BioTek) and cells were counted using CellProfiler (http://cellprofiler.org). The percent cell growth delay was calculated and data plotted using GraphPad Prism

[1] = Glutathione cleavage study; type: in vitro ADME; details: Tris buffer with 10 mM glutathione, Glutathione Challenge (10 mM), 100 μM conjugate, Tris pH 7.5, 37° C.
Experimental: A 20 mM stock of conjugate was prepared in 100% DMSO. The stocks were subsequently diluted in 100 mM Tris, pH 7.5, to yield an intermediate dilution of 500 μM followed by an additional dilution of 1:5 in 100 mM Tris, pH 7.5 to give a final concentration of 100 μM of conjugate. 100 mM glutathione was prepared immediately prior to use in H2O and diluted 1:10 in challenge samples for a final glutathione challenge concentration of 10 mM. Samples were mixed by inversion and incubated at 37° C. for up to 24 hrs. […]
(§1) Samples were thawed and extracted as follows: 8 μL of 25% phosphoric acid followed by 117 μL of 100% acetonitrile/0.1% TFA were added to each sample, mixed and centrifuged at 13000×G for 10 minutes. The supernatant was pipetted into 0.2 mL HPLC vials and placed on a Perkin Elmer Flexar HPLC autosampler. The following table summarizes HPLC conditions:
Data was analyzed by calculating the percentage reduction of compound (area of retention time peak of […] conjugate/area of retention time peak of conjugate at time 0)×100.

Plasma stability studies = type: in vitro ADME; details: rat plasma, 100 μM conjugate, 37° C.
Experimental: A 20 mM stock of conjugate was prepared in 100% DMSO. The stocks were subsequently diluted in 100 mM Tris, pH 7.5 to yield an intermediate dilution of 500 μM and then diluted 1:5 directly into rat plasma to yield a final concentration of 100 μM of conjugate. Samples were mixed by inversion and incubated at 37° C. for up to 24 h. 50 μL samples were aliquoted into siliconized microfuge tubes at time 0, 4, and 24 h and immediately frozen at −80° C.
as §1, with “100% Acetonitrile/0.1%” for “100% acetonitrile/0.1%”, “TFA was” for “TFA were”
Data was analyzed by calculating the percentage reduction of compound (area of retention time peak of incubated conjugate/area of retention time peak of conjugate at time 0)×100.

SMILES | IC50 (HCT116) | remaining at 4 h, 100 µM [1] | remaining at 24 h, 100 µM [1] | remaining at 4 h, 100 µM (Plasma stability studies) | remaining at 24 h, 100 µM (Plasma stability studies)
CC[C@@]1(O)C(=O)OCc2c1cc1n(c2=O)Cc2c-1nc1cc(F)c(C)c3c1c2[C@@H](NC(=O)O[C@H]1Cc2ccccc2C[C@@H]1SSC[C@H](NC(=O)[C@H](Cc1c[nH]c2ccccc12)NC(=O)[C@H](CC(C)C)NC(=O)[C@H](CC(C)C)NC(=O)[C@H](CC(=O)O)NC(=O)[C@H](CC(C)C)NC(=O)[C@H](CC(C)C)NC(=O)[C@H](CC(C)C)NC(=O)[C@@H](NC(=O)[C@H](CC(=O)O)NC(=O)[C@@H](NC(=O)[C@@H]1CCCN1C(=O)[C@H](Cc1ccccc1)NC(=O)[C@H](CC(C)C)NC(=O)[C@H](CC(C)C)NC(=O)[C@H](CC(=O)O)NC(=O)[C@H](CC(C)C)NC(=O)[C@H](Cc1ccc(O)cc1)NC(=O)[C@H](C)NC(=O)[C@H](CCCNC(=N)N)NC(=O)[C@H](Cc1c[nH]c2ccccc12)NC(=O)[C@@H]1CCCN1C(=O)[C@H](CC(N)=O)NC(=O)[C@H](CCC(N)=O)NC(=O)[C@H](CC(=O)O)NC(=O)[C@H](CC(=O)O)NC(=O)[C@H](C)N)[C@@H](C)O)[C@@H](C)O)C(=O)NCC(=O)O)CC3 [Compound 18] | 2.9 nM | 60.1% | 13% | 104% | 93%
CC[C@@]1(O)C(=O)OCc2c1cc1n(c2=O)Cc2c-1nc1cc(F)c(C)c3c1c2[C@@H](NC(=O)O[C@H]1CC[C@H](SSC[C@H](NC(=O)[C@H](Cc2c[nH]c4ccccc24)NC(=O)[C@H](CC(C)C)NC(=O)[C@H](CC(C)C)NC(=O)[C@H](CC(=O)O)NC(=O)[C@H](CC(C)C)NC(=O)[C@H](CC(C)C)NC(=O)[C@H](CC(C)C)NC(=O)[C@@H](NC(=O)[C@H](CC(=O)O)NC(=O)[C@@H](NC(=O)[C@@H]2CCCN2C(=O)[C@H](Cc2ccccc2)NC(=O)[C@H](CC(C)C)NC(=O)[C@H](CC(C)C)NC(=O)[C@H](CC(=O)O)NC(=O)[C@H](CC(C)C)NC(=O)[C@H](Cc2ccc(O)cc2)NC(=O)[C@H](C)NC(=O)[C@H](CCCNC(=N)N)NC(=O)[C@H](Cc2c[nH]c4ccccc24)NC(=O)[C@@H]2CCCN2C(=O)[C@H](CC(N)=O)NC(=O)[C@H](CCC(N)=O)NC(=O)[C@H](CC(=O)O)NC(=O)[C@H](CC(=O)O)NC(=O)[C@H](C)N)[C@@H](C)O)[C@@H](C)O)C(=O)NCC(=O)O)CC1)CC3 [Compound 26] | 87 nM | 75.8% | 32.1% | 105% | 112%
CC[C@@]1(O)C(=O)OCc2c1cc1n(c2=O)Cc2c-1nc1cc(F)c(C)c3c1c2[C@@H](NC(=O)O[C@H]1COC[C@@H]1SSC[C@H](NC(=O)[C@H](Cc1c[nH]c2ccccc12)NC(=O)[C@H](CC(C)C)NC(=O)[C@H](CC(C)C)NC(=O)[C@H](CC(=O)O)NC(=O)[C@H](CC(C)C)NC(=O)[C@H](CC(C)C)NC(=O)[C@H](CC(C)C)NC(=O)[C@@H](NC(=O)[C@H](CC(=O)O)NC(=O)[C@@H](NC(=O)[C@@H]1CCCN1C(=O)[C@H](Cc1ccccc1)NC(=O)[C@H](CC(C)C)NC(=O)[C@H](CC(C)C)NC(=O)[C@H](CC(=O)O)NC(=O)[C@H](CC(C)C)NC(=O)[C@H](Cc1ccc(O)cc1)NC(=O)[C@H](C)NC(=O)[C@H](CCCNC(=N)N)NC(=O)[C@H](Cc1c[nH]c2ccccc12)NC(=O)[C@@H]1CCCN1C(=O)[C@H](CC(N)=O)NC(=O)[C@H](CCC(N)=O)NC(=O)[C@H](CC(=O)O)NC(=O)[C@H](CC(=O)O)NC(=O)[C@H](C)N)[C@@H](C)O)[C@@H](C)O)C(=O)NCC(=O)O)CC3 [Compound 17] | 0.7 nM | 3.4% | 1.7% | 107% | 105%
CC[C@@]1(O)C(=O)OCc2c1cc1n(c2=O)Cc2c-1nc1cc(F)c(C)c3c1c2[C@@H](NC(=O)OC[C@H](SSC[C@H](NC(=O)[C@H](Cc1c[nH]c2ccccc12)NC(=O)[C@H](CC(C)C)NC(=O)[C@H](CC(C)C)NC(=O)[C@H](CC(=O)O)NC(=O)[C@H](CC(C)C)NC(=O)[C@H](CC(C)C)NC(=O)[C@H](CC(C)C)NC(=O)[C@@H](NC(=O)[C@H](CC(=O)O)NC(=O)[C@@H](NC(=O)[C@@H]1CCCN1C(=O)[C@H](Cc1ccccc1)NC(=O)[C@H](CC(C)C)NC(=O)[C@H](CC(C)C)NC(=O)[C@H](CC(=O)O)NC(=O)[C@H](CC(C)C)NC(=O)[C@H](Cc1ccc(O)cc1)NC(=O)[C@H](C)NC(=O)[C@H](CCCNC(=N)N)NC(=O)[C@H](Cc1c[nH]c2ccccc12)NC(=O)[C@@H]1CCCN1C(=O)[C@H](CC(N)=O)NC(=O)[C@H](CCC(N)=O)NC(=O)[C@H](CC(=O)O)NC(=O)[C@H](CC(=O)O)NC(=O)[C@H](C)N)[C@@H](C)O)[C@@H](C)O)C(=O)NCC(=O)O)C(C)C)CC3 [Compound 28] | 1.1 nM | 40.5% | 0% | 106% | 106%
CC[C@@]1(O)C(=O)OCc2c1cc1n(c2=O)Cc2c-1nc1cc(F)c(C)c3c1c2[C@@H](NC(=O)O[C@@H]1COC[C@H]1SSC[C@H](NC(=O)[C@H](Cc1c[nH]c2ccccc12)NC(=O)[C@H](CC(C)C)NC(=O)[C@H](CC(C)C)NC(=O)[C@H](CC(=O)O)NC(=O)[C@H](CC(C)C)NC(=O)[C@H](CC(C)C)NC(=O)[C@H](CC(C)C)NC(=O)[C@@H](NC(=O)[C@H](CC(=O)O)NC(=O)[C@@H](NC(=O)[C@@H]1CCCN1C(=O)[C@H](Cc1ccccc1)NC(=O)[C@H](CC(C)C)NC(=O)[C@H](CC(C)C)NC(=O)[C@H](CC(=O)O)NC(=O)[C@H](CC(C)C)NC(=O)[C@H](Cc1ccc(O)cc1)NC(=O)[C@H](C)NC(=O)[C@H](CCCNC(=N)N)NC(=O)[C@H](Cc1c[nH]c2ccccc12)NC(=O)[C@@H]1CCCN1C(=O)[C@H](CC(N)=O)NC(=O)[C@H](CCC(N)=O)NC(=O)[C@H](CC(=O)O)NC(=O)[C@H](CC(=O)O)NC(=O)[C@H](C)N)[C@@H](C)O)[C@@H](C)O)C(=O)NCC(=O)O)CC3 [Compound 16] | 1.7 nM | 3.4% | 2% | 116% | 106%
